Among the data in patent publication US20180371065A1 are EC50 values, retold here.

Assay [1] deals with human α-synuclein, full length, wild type (human) (UniProt P37840). In words: direct ELISA, 20 µg/ml coating of full length α-synuclein. Background: ELISA stands for enzyme-linked immunosorbent assay.
Assay [2] has the same target. In words: direct ELISA, 100 ng/ml coating of full length α-synuclein.

antibody Syn211 (Sigma): the EC50 in assay [1] is 0.335 nM; in assay [2], 0.099 nM.

Usually EC50 stands for the concentration needed to bring the measured effect to its halfway point.
